Results: paper PMC3485097, “Branching of the p-nitrophenol (PNP) degradation pathway in burkholderia sp. Strain SJ98: Evidences from genetic characterization of PNP gene cluster” (AMB Express, 2012)

What was measured:
[1] = biological target: PnpE2, small subunit of hydroquinone dioxygenase (HqD) of Burkholderia sp. strain SJ98 (Burkholderia sp. strain SJ98); test: SEC; purified PnpE1 and PnpE2 mixed in molar ratios from 3:1 to 1:3 in 50 mM phosphate buffer pH 7.0, incubated at 30°C for 1 h, then Sephacryl-200 gel filtration; molecular weight from the elution volume against standard proteins
[2] = tested on: T1, reconstituted HqD (PnpE1_2-PnpE2_2 heterotetrameric complex); test: spectrophotometric, 4-hydroxymuconic semialdehyde formation at […] nm; assay type: biochemical, Burkholderia sp. SJ98; details: pH 7.0, 25°C; Fe(II) required (100 μM FeSO4 in the standard assay)
T1 construct: gene pnpE1; N-terminal 6xHis on both subunits (pDEST17), E. coli BL21-AI; mixed, gel-filtered, ~120 kDa heterotetramer; with Hydroquinone dioxygenase small subunit

Row | stoichiometry N (molecules of each subunit (2:2)) [1] | Molecule | Km [2] [µM]
1 | 2 | PnpE1, large subunit of hydroquinone dioxygenase (HqD) of Burkholderia sp. strain SJ98 (natural protein) | –
2 | – | Oc1ccc(O)cc1 [HQ, hydroquinone] | 65.3 ± 10.5
